Consider one molecule from patent US20240415886A1 (published 2024).

The target of this assay is T1, p53 wild type peptide on HLA-A*02:01 (human).
T1 peptide: HMTEVVRRC
Put plainly: activation reporter or marker.

B1: p53R175H peptide specific TCR (the inventive TCR) (TCR, V domains shown)
Valpha: GIQVEQSPPDLILQEGANSTLRCNFSDSVNNLQWFHQNPWGQLINLFYIPSGTKQNGRLSATTVATERYSLLYISSSQTTDSGVYFCAVNQAGTALIFGKGTTLSVSS
Vbeta: EPEVTQTPSHQVTQMGQEVILRCVPISNHLYFYWYRQILGQKVEFLVSFYNNEISEKSEIFDDQFSVERPDGSNFTLKIRSTKLEDSAMYFCASMGTGDEAFFGQGTRLTVV
As to B1, the binding result is recorded as “no recognition”.
